Laboratory results from PMC4381594, “GCN5 inhibits XBP-1S-mediated transcription by antagonizing PCAF action” (Oncotarget, 2014).

Experiments:
[1] = biological target: T1, XBP-1S, the active isoform of X-box binding protein 1 (human, UniProt P17861-2 1-376); experiment: co-IP; 293T cells co-transfected with PCAF and XBP-1S vectors with or without a GCN5 plasmid; IP with anti-XBP-1 antibody, immunoblot with anti-PCAF or anti-XBP-1; bands quantified by densitometry, PCAF normalised to precipitated XBP-1S; settings: partners not purified
T1 construct: source: 293T, transfected, in lysate
T1 sequence (looked up): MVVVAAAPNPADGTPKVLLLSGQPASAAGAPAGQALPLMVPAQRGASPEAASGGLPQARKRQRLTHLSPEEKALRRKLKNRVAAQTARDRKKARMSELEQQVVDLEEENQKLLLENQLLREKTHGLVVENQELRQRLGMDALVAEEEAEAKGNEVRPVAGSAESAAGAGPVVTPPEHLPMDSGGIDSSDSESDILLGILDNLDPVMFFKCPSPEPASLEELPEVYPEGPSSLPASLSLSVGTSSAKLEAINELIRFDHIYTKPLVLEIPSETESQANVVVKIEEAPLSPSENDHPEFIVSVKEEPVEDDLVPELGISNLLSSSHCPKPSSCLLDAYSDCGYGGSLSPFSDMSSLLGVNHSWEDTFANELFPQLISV

[2] = biological target: T1, XBP-1S, the active isoform of X-box …; experiment: cell-based or functional assay

B1: general control nonderepressible 5 (GCN5) (enzyme, human, UniProt Q92830 1-837, looked up)
chain: MAEPSQAPTPAPAAQPRPLQSPAPAPTPTPAPSPASAPIPTPTPAPAPAPAAAPAGSTGTGGPGVGSGGAGSGGDPARPGLSQQQRASQRKAQVRGLPRAKKLEKLGVFSACKANETCKCNGWKNPKPPTAPRMDLQQPAANLSELCRSCEHPLADHVSHLENVSEDEINRLLGMVVDVENLFMSVHKEEDTDTKQVYFYLFKLLRKCILQMTRPVVEGSLGSPPFEKPNIEQGVLNFVQYKFSHLAPRERQTMFELSKMFLLCLNYWKLETPAQFRQRSQAEDVATYKVNYTRWLCYCHVPQSCDSLPRYETTHVFGRSLLRSIFTVTRRQLLEKFRVEKDKLVPEKRTLILTHFPKFLSMLEEEIYGANSPIWESGFTMPPSEGTQLVPRPASVSAAVVPSTPIFSPSMGGGSNSSLSLDSAGAEPMPGEKRTLPENLTLEDAKRLRVMGDIPMELVNEVMLTITDPAAMLGPETSLLSANAARDETARLEERRGIIEFHVIGNSLTPKANRRVLLWLVGLQNVFSHQLPRMPKEYIARLVFDPKHKTLALIKDGRVIGGICFRMFPTQGFTEIVFCAVTSNEQVKGYGTHLMNHLKEYHIKHNILYFLTYADEYAIGYFKKQGFSKDIKVPKSRYLGYIKDYEGATLMECELNPRIPYTELSHIIKKQKEIIKKLIERKQAQIRKVYPGLSCFKEGVRQIPVESVPGIRETGWKPLGKEKGKELKDPDQLYTTLKNLLAQIKSHPSAWPFMEPVKKSEAPDYYEVIRFPIDLKTMTERLRSRYYVTRKLFVADLQRVIANCREYNPPDSEYCRCASALEKFFYFKLKEGGLIDK
notes: No tag is named for this plasmid; precipitated and detected with anti-GCN5 (ab71965); also called GCN5 WT; source: 293T, transfected, in lysate
fold decrease of PCAF-XBP-1S binding with GCN5 overexpressed [1]: 4 fold
fold decrease in XBP-1S-mediated luciferase expression from the 5×UPRE-Luc reporter in HEK293 cells with GCN5 overexpressed [2]: > 5 fold
